Test results taken from patent US20020031761A1, “Binding moieties for human parvovirus B19” (priority 1998, published 2002).
No end group written: not given here.

Key:
[1] = molecular target: VP1-VP2 (Human parvovirus B19, UniProt P07299); assay: Relative binding ELISA, constant phage against decreasing amounts of VP1-VP2; conditions: signal interpolated at VP1-VP2 1:10 dilution; binding data normalized as percent of OD 630 nm
Description: Based on the ELISA data and the sequence similarities within each library, the 18 isolates (Tables 1-3) were selected and evaluated further with respect to their binding characteristics to VP1-VP2. Relative binding of each isolate was studied by ELISA. Each selected phage isolate, held at a constant amount, was contacted with decreasing amounts per well of VP1-VP2, the amounts coating each dextrin well varying from 2 μl down to 0.001 μl. Bound phage were detected as described before using polyclonal anti-phage antibody. […] Using VP1-VP2 at 1:10 dilution as an arbitrary point, a value for the signal was interpolated, and the relative binding strengths are reflected in Tables 1-3, above.

[2] = molecular target: VP1-VP2 (purified, recombinant B19 capsid proteins VP1 and VP2) (Human parvovirus B19, UniProt P07299); assay: ELISA of individual phage isolates for binding to VP1-VP2; conditions: phage isolate 10^9 pfu per well; VP1-VP2 2 μl per well on dextrin plates; HRP anti-M13 antibody, TMB
Excerpt: For screening libraries to isolate binding moieties for parvovirus B19, a surrogate target was obtained, consisting of purified, recombinant B19 capsid proteins VP 1 and VP2 (VP1-VP2). Suitable preparations of VP1-VP2 can be made according to methods described in U.S. Pat. No. 5,498,413 or WO 91/12269, incorporated herein by reference. Prior to screening against phage display libraries, partially purified VP1-VP2 was immobilized on dextrin-coated microtiter wells (Recti-Bind™; Pierce Chemical Co.) and tested using standard ELISA techniques, to ensure that under the screening conditions there was a low background level of phage recovered.
From convergent screens of phage display libraries, eluted phage were propagated and 376 phage isolates were selected randomly and individually tested for binding to VP1-VP2 by standard ELISA techniques, using a polyclonal anti-phage antibody to detect bound phage. Briefly, VP1-VP2 (2 μl per well) was coated on dextrin plates, blocked with BSA, and individual phage isolates were added to the wells (50 μl, 10^9 pfu per well). After washing, bound phage were incubated with the detection anti-phage antibodies (100 μl per well HRP-conjugated anti-M13 antibody in PBS-Tween (Pharmacia Inc.)). […] The bound antibody was detected by adding 100 μl per well of two-component TMB (tetramethylbenzidine; Kirkegaard & Perry). […]

Question: Which results are given for “A F C W L W P G N C L H (AFCWLWPGNCLH; not fully specified; cysteine pairing not given here) [C01]”?
Answer: relative binding [1]: 44; ELISA signal [2]: 1.5
